The data set deals with the molecule itself. The data set is described as follows: SEC. For orientation: SEC sorts molecules by how far they enter the pores of the column.

“And” between values parts separate entries of the source, which are not always exact repeats. Equal entries are not always repeated.

B1: mouse Serum amyloid A 1.1 (SAA1.1), lipid-free (natural protein)
chain: GFFSFIGEAFQGAGDMWRAYTDMKEAGWKDGDKYFHARGNYDAAQRGPGGVWAAEKISDARESFQEFFGRGHEDTMADQEANRHGRSGKDPNYYRPPGLPAKY
As for B1, the “stoichiometry N” value was 12 and 4.

Usually stoichiometry N stands for a count of units in the complex or per binding partner.

Values taken from paper PMC4119840 (Biochimie, 2014).
